These results are taken from article PMC5809584, “Plastic roles of phenylalanine and tyrosine residues of TLS/FUS in complex formation with the G-quadruplexes of telomeric DNA and TERRA”.

The data set addresses RGG3 of TLS/FUS (UniProt P35637 454-526). The data set is described as follows: NMR CSP; equivalent amount, 50 mM KCl; NMR: 20 mM K-phosphate pH 6.2, 50 mM KCl, 1 mM DTT, 0.1 mM DSS, 5% D2O, 298 K; FA: 20 C (nucleic acids annealed in 20 mM K-phosphate pH 6.2, 50 mM KCl); EMSA: 50 mM Tris-HCl pH 7.5, 100 mM KCl, 0.5 mM EDTA, 0.5 mM DTT, 0.2 mg/mL BSA, 1 ug/mL calf thymus DNA, 20 C. The conditions noted are these: protein: recombinant; tags: GST removed with PreScission; residual GST-vector residues at N-terminus; G4, heterogeneous. In general terms: Mobility shift assays separate free from complexed probe on a gel.

RGG3 of TLS/FUS, sequence (P35637 454-526): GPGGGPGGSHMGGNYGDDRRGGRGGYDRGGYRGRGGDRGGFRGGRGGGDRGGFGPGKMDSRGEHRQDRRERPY

With UUAGGGUUAGGGUUAGGGUUAGGG (structured_RNA) [TERRA24], the binding result is given as “binds”.
